We go through 35 sequences from the supplement of paper PMC12764529.

Data set [1] is described as follows: folding stability dG unfold from trypsin proteolysis; higher = more stable. The essentials:
(§1)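 K50 was inferred by Bayesian fitting of sequencing counts obtained after protease digestion of designed mini-proteins. Unfolding free energy was derived by comparison with a sequence-predicted unfolded-state K50 and a shared folded-state K50, for each protease or both combined. The mini-proteins were under 80 residues, had no cysteine, were carried in a PA-tagged cDNA display construct, and were kept only if AlphaFold2 dimer inter-PAE exceeded 15.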

Data set [2] can be described thus: folding stability dG unfold (combined trypsin and chymotrypsin); higher = more stable. The essentials:
as §1

Data set [3] is described as follows: folding stability dG unfold from chymotrypsin proteolysis; higher = more stable. The essentials:
as §1

± gives the half width of the 95% confidence interval.

For “SAGGSAGGSAGKKKGKKPKKIKVKKIKLIVKDKETNEYYEKEITVNKDGTLTIKVKKLKKSAGGSAGGSAGG [r11_883_TrROS_Hall]”, the “folding stability dG unfold” value in data set [1] was 1.85 ± 0.083 kcal/mol; in data set [2], 2.75 ± 0.1 kcal/mol; in data set [3], 3.07 ± 0.089 kcal/mol.

“SAGGSAGGSAGKKKKKKLVRVRITYKNGKKKEFVFKTKEEAEKALKEEFNIEKIEIEEIPSAGGSAGGSAGG [r17_508_TrROS_Hall]”: the “folding stability dG unfold” value is 2.84 ± 0.1 kcal/mol in data set [1], 3.43 ± 0.16 kcal/mol in data set [2] and 3.66 ± 0.068 kcal/mol in data set [3].

With “SAGGSAGGSAGKKKLTVTVKKKKPAKEKKKVKTKVVKEKKLELSEEELKKLLDELKELLESAGGSAGGSAGG [r11_418_TrROS_Hall]”, the “folding stability dG unfold” value in data set [1] is 0.624 ± 0.079 kcal/mol; in data set [2], 0.321 ± 0.16 kcal/mol; in data set [3] it was -0.447 ± 0.14 kcal/mol.

For the sequence “SAGGSAGGSAGKKLKPFKVVEVKEPVKEGDVIEVENEATGELYRFTVVNGEIKIEKVKLDSAGGSAGGSAGG [r11_94_TrROS_Hall]”, the “folding stability dG unfold” value is 0.225 ± 0.053 kcal/mol in data set [1], 0.365 ± 0.29 kcal/mol in data set [2] and 0.442 ± 0.21 kcal/mol in data set [3].

Take “SAGGSAGGSAGKKPPKVKVLELTFTLEDGYKVTVRLVENEDGELFLEIRIEPLPELPEEKSAGGSAGGSAGG [r11_998_TrROS_Hall]”: the “folding stability dG unfold” value turned out to be 1.79 ± 0.16 kcal/mol in data set [1], 2.94 ± 0.13 kcal/mol in data set [2] and 3.36 ± 0.14 kcal/mol in data set [3].

“SAGGSAGGSAGKKPPVYRLVVENEDGEKYEFEFKSLEDLKAALESEEVRKKIKKVKIEKVSAGGSAGGSAGG [r11_1047_TrROS_Hall]”: the “folding stability dG unfold” value was determined as 2.11 ± 0.09 kcal/mol in data set [1], 2.6 ± 0.15 kcal/mol in data set [2] and 3.02 ± 0.11 kcal/mol in data set [3].

For “SAGGSAGGSAGKKSYVLIKVKNPKTKETHTIVVPEENLEEVLKALASQPNVKVVDIERFPSAGGSAGGSAGG [r11_692_TrROS_Hall]”, the results for the “folding stability dG unfold” value in data set [1], in data set [2] and in data set [3] were 3.65 ± 0.19 kcal/mol, 3.95 ± 0.12 kcal/mol and 4.11 ± 0.065 kcal/mol, respectively.

As for “SAGGSAGGSAGKKVKISLILIAKSPEEAEEAAKAIKEAFGSEDVEVDIIEIPAKLGPGKLSAGGSAGGSAGG [r17_285_TrMRF]”, the “folding stability dG unfold” value in data set [1] was 0.319 ± 0.072 kcal/mol; in data set [2], 0.378 ± 0.26 kcal/mol; in data set [3], 0.252 ± 0.12 kcal/mol.

Take “SAGGSAGGSAGKKYKVKVILQPKGEDKPLEIEIEVESLEEAKELLEKAFPDTRIRIDVIESAGGSAGGSAGG [r17_428_TrMRF]”: the “folding stability dG unfold” value in data set [1] was 1.99 ± 0.098 kcal/mol; in data set [2] it was 2.59 ± 0.18 kcal/mol; in data set [3] it was 2.93 ± 0.088 kcal/mol.

For the sequence “SAGGSAGGSAGKLPEGMKMEVRPKTIFNEDGYMIKITIIRAPDPNILAINIEIIPPGDPISAGGSAGGSAGG [r11_338_TrROS]”, the “folding stability dG unfold” value in data set [1] came out at 2.04 ± 0.12 kcal/mol; in data set [2], 2.14 ± 0.24 kcal/mol; in data set [3], 1.89 ± 0.14 kcal/mol.

Regarding “SAGGSAGGSAGKLRVRIPPRLRERLRKRKRVRLRLRVEEREVRDEDGNLRRVRRLEIELESAGGSAGGSAGG [r11_113_TrROS_Hall]”, the “folding stability dG unfold” value in data set [1] amounted to 0.819 ± 0.15 kcal/mol; in data set [2], 1.42 ± 0.17 kcal/mol; in data set [3], 2.03 ± 0.19 kcal/mol.

For “SAGGSAGGSAGKNWFFRIKIKYPNGEERTIYIPGTLDEIKEELPGPIKNIDIEPMPAEDMSAGGSAGGSAGG [r11_596_TrROS]”, the entries for the “folding stability dG unfold” value in data set [1], in data set [2] and in data set [3] were 1.05 ± 0.045 kcal/mol, 1.52 ± 0.078 kcal/mol and 1.76 ± 0.1 kcal/mol, respectively.

Turning to “SAGGSAGGSAGKPEFELIAKIEVNGKTYYILRNKETGEYLIYDLDTGKKYTIRKDDPNLLSAGGSAGGSAGG [r11_1007_TrROS_Hall]”, the “folding stability dG unfold” value in data set [1] came to 2.47 ± 0.16 kcal/mol; in data set [2], 2.78 ± 0.34 kcal/mol; in data set [3] it was 2.95 ± 0.066 kcal/mol.

For “SAGGSAGGSAGKPEIEMEIETRTVRLPDGYLLRFSRMRITLPDGSKFEFLSVEIIRLEDLSAGGSAGGSAGG [r17_312_TrROS_Hall]”, the “folding stability dG unfold” value was 3.88 ± 0.31 kcal/mol in data set [1], 5.38 ± 0.36 kcal/mol in data set [2] and 5.56 ± 0.14 kcal/mol in data set [3].

Consider “SAGGSAGGSAGKPKKPKLVKVKITLPNGEKKEIITEDVEEVIKEINEEFGAIKIEVEEIKSAGGSAGGSAGG [r17_508_TrMRF]”, for which the “folding stability dG unfold” value in data set [1] came to 2.68 ± 0.12 kcal/mol; in data set [2], 2.76 ± 0.17 kcal/mol; in data set [3] it was 2.8 ± 0.14 kcal/mol.

Regarding “SAGGSAGGSAGKPKTKTITLTLLVYDEETGEFYRIEARIEINEDGSITIEEKIEKLPLKPSAGGSAGGSAGG [r11_941_TrROS_Hall]”, the results for the “folding stability dG unfold” value in data set [1], in data set [2] and in data set [3] were 2.81 ± 0.13 kcal/mol, 3.91 ± 0.12 kcal/mol and 4.17 ± 0.1 kcal/mol, respectively.

As to “SAGGSAGGSAGKPKTLEVEMLVLDPETRRLYRVRMEIVLDPEDEGKLTIRLEIEELELPDSAGGSAGGSAGG [r17_241_TrROS_Hall]”, the figures for the “folding stability dG unfold” value in data set [1], in data set [2] and in data set [3] were 3.42 ± 0.081 kcal/mol, 4.27 ± 0.14 kcal/mol and 4.5 ± 0.096 kcal/mol, respectively.

Regarding “SAGGSAGGSAGKPKTVEIEVTNEDGSKYKAKVVEVDEEKGYVLIKITNPDGSEQTILIKLSAGGSAGGSAGG [r11_742_TrROS_Hall]”, the “folding stability dG unfold” value in data set [1] is 1.81 ± 0.06 kcal/mol; in data set [2], 2.6 ± 0.1 kcal/mol; in data set [3], 2.97 ± 0.033 kcal/mol.

With “SAGGSAGGSAGKPKVKKITLKNPATGETVEAEVVEVDGYLVVRVRNKDDPEKTETFVFKLSAGGSAGGSAGG [r17_73_TrROS_Hall]”, the “folding stability dG unfold” value stood at 2.17 ± 0.051 kcal/mol in data set [1], 2.48 ± 0.12 kcal/mol in data set [2] and 2.58 ± 0.049 kcal/mol in data set [3].

For “SAGGSAGGSAGKPVLKLTVTLPNGLTVTVTINPDGEITVEIRPLPPPPPPVRTYSDEELKSAGGSAGGSAGG [r11_1015_TrROS_Hall]”, the results for the “folding stability dG unfold” value in data set [1], in data set [2] and in data set [3] were 2.29 ± 0.19 kcal/mol, 2.1 ± 0.31 kcal/mol and 2.75 ± 0.16 kcal/mol, respectively.

On to “SAGGSAGGSAGKPVTLTDANGTPYSVSQVTTDPNSATVTATFTSPTSSTTHTATYPVTPASAGGSAGGSAGG [r11_290_JUSTAS]”, for which the figures for the “folding stability dG unfold” value in data set [1], in data set [2] and in data set [3] were 1.03 ± 0.046 kcal/mol, 0.791 ± 0.14 kcal/mol and 0.728 ± 0.13 kcal/mol, respectively.

As to “SAGGSAGGSAGKRRIYILGMDTVQVAEYLRDTGPDIKVEVFNPGQPMEEFQDNYDIVIFVSAGGSAGGSAGG [r17_225_TrROS]”, the “folding stability dG unfold” value in data set [1] was 1.59 ± 0.035 kcal/mol; in data set [2], 2.04 ± 0.16 kcal/mol; in data set [3] it was 2.33 ± 0.1 kcal/mol.

Regarding “SAGGSAGGSAGKTIKILLVVKDPETNEYYFLVMEIHLDENGNLHMKIKVFPTKEDAEKALSAGGSAGGSAGG [r11_792_TrROS_Hall]”, the “folding stability dG unfold” value is 3.66 ± 0.19 kcal/mol in data set [1], 4.06 ± 0.15 kcal/mol in data set [2] and 4.15 ± 0.085 kcal/mol in data set [3].

On to “SAGGSAGGSAGKTLVFKTKEEALKAIEEEAKKKGYKKVKIEITEVGPDGKVKVKVKIEKKSAGGSAGGSAGG [r17_430_TrROS_Hall]”, for which the “folding stability dG unfold” value in data set [1] came out at 0.763 ± 0.047 kcal/mol; in data set [2], 1.3 ± 0.19 kcal/mol; in data set [3], 1.34 ± 0.18 kcal/mol.

With “SAGGSAGGSAGKTVVIEIKGMSKEQVLNLIKELAEKYPNSKIIITNENGEKIEINVKDLKSAGGSAGGSAGG [r11_541_TrROS_Hall]”, the “folding stability dG unfold” value in data set [1] amounted to 1.95 ± 0.13 kcal/mol; in data set [2], 2.85 ± 0.22 kcal/mol; in data set [3] it was 3.34 ± 0.12 kcal/mol.

Turning to “SAGGSAGGSAGKTYTLTITTENGKTITLPKDVEVVYDEKTGYLYIKNKKTNKVIKVKLKDSAGGSAGGSAGG [r17_432_TrROS_Hall]”, the “folding stability dG unfold” value came to 2.13 ± 0.051 kcal/mol in data set [1], 2.19 ± 0.079 kcal/mol in data set [2] and 2.21 ± 0.059 kcal/mol in data set [3].

“SAGGSAGGSAGKVELIETEDKLYLVVEVDGKKEVIEVSKEELEELLAALPPDAKVTILKPSAGGSAGGSAGG [r11_374_TrROS_Hall]”: the results for the “folding stability dG unfold” value in data set [1], in data set [2] and in data set [3] were 3.17 ± 0.21 kcal/mol, 2.77 ± 0.16 kcal/mol and 2.49 ± 0.12 kcal/mol, respectively.

Take “SAGGSAGGSAGKVIIIKVPKKDMTPEEVEKLAKELKEKFPDAKITVIEVKKDGYIIIKIDSAGGSAGGSAGG [r11_365_TrROS_Hall]”: the results for the “folding stability dG unfold” value in data set [1], in data set [2] and in data set [3] were 1.91 ± 0.063 kcal/mol, 2.47 ± 0.11 kcal/mol and 2.73 ± 0.079 kcal/mol, respectively.

For “SAGGSAGGSAGKWIMFDSPEDIEEKLKENGYRIKNIEPQKMGGGPHVYVPIEIKPPPEDKSAGGSAGGSAGG [r11_141_TrROS]”, the “folding stability dG unfold” value was -0.506 ± 0.54 kcal/mol in data set [1], 0.155 ± 0.38 kcal/mol in data set [2] and 0.43 ± 0.39 kcal/mol in data set [3].

On to “SAGGSAGGSAGKYYIIKYPGKVEIIPESEVEKIIEANPNVEIEEFESKEEALKALEKALSSAGGSAGGSAGG [r11_60_TrMRF]”, for which the “folding stability dG unfold” value was 3.95 ± 0.21 kcal/mol in data set [1], 4.22 ± 0.09 kcal/mol in data set [2] and 4.24 ± 0.083 kcal/mol in data set [3].

With “SAGGSAGGSAGLEALKKALEALPPGEERELEIEVEVDGKLYRFRIRVEKTEDGEYKATIELESAGGSAGGSA [r18_493_TrROS_Hall]”, the “folding stability dG unfold” value was 4.56 ± 0.34 kcal/mol in data set [1], 4.76 ± 0.16 kcal/mol in data set [2] and 4.88 ± 0.084 kcal/mol in data set [3].

Consider “SAGGSAGGSAGLEVPPGVPVKIPVVYVDKENDYVIVTELTITPDSGEIFYDPKIIPKKELSAGGSAGGSAGG [r11_468_TrMRF]”, for which the entries for the “folding stability dG unfold” value in data set [1], in data set [2] and in data set [3] were 0.251 ± 0.063 kcal/mol, 0.65 ± 0.099 kcal/mol and 0.734 ± 0.07 kcal/mol, respectively.

On to “SAGGSAGGSAGLFIPETGLLVVYDPAPGTLHVFRITGGDGLEIEPVGEVEVDPDNPELGTAFSAGGSAGGSA [r18_448_TrMRF]”, for which the figures for the “folding stability dG unfold” value in data set [1], in data set [2] and in data set [3] were -0.284 ± 0.29 kcal/mol, 0.327 ± 0.18 kcal/mol and 0.464 ± 0.16 kcal/mol, respectively.

For “SAGGSAGGSAGLKPEVEALVRVVLKLPEGERVVLVKVKTLEELFELDLPEVVSIEIRPLKSAGGSAGGSAGG [r17_290_TrMRF]”, the “folding stability dG unfold” value in data set [1] worked out at 1.28 ± 0.028 kcal/mol; in data set [2] it was 1.6 ± 0.064 kcal/mol; in data set [3] it was 1.73 ± 0.049 kcal/mol.

For the sequence “SAGGSAGGSAGLTFTLPDGTKITIETLEDGSVKIKIETLTPDGKPLEAEFVIPGSHPDEDSAGGSAGGSAGG [r17_471_TrMRF]”, the results for the “folding stability dG unfold” value in data set [1], in data set [2] and in data set [3] were 3.2 ± 0.15 kcal/mol, 3.58 ± 0.13 kcal/mol and 3.76 ± 0.14 kcal/mol, respectively.
